Experimental data published in the RNAGym collection of RNA variant scans (doi:10.7554/elife.90254).

B1: OR4K15 (parent)
chain: GUUAACGGUCAUAGGCCAUGGAAACUAGGAGCACCAUUUCGCUGCCAGUGAAGAAAUGAACAAAGAAAAUCUGGGCCAGGCAGGCAUCAAAAGAAAUAGUCUUGCGCUCAACCAGAAAGUCUGUAAUCAUUUUAAGGGUA

Variants of: B1
Test: self-cleavage, relative activity (ratio to wild type); higher = more cleavage; in vitro, sequencing; the parent is a self-cleaving ribozyme

In order of rising self-cleavage:
1. A60G C107U  0
2. A59G C107U  0.01
3. A60G C112A  0.02
4. A59U A111G  0.02
5. A60C C71U  0.04
6. A59G G104A  0.06
7. A59G A111U  0.07
8. A60G A82C  0.08
9. A60G C113U  0.09
10. A60G G80U  0.09
11. A60G A82U  0.12
12. A59U A111U  0.13
13. A59U U72A  0.14
14. A60G A78C  0.17
15. A59G G73A  0.17
16. A59U U72C  0.17
17. A60C U72A  0.21
18. A60G A82G  0.21
19. A59G G75A  0.22
20. A60U A78G  0.23
21. A59G U72C  0.23
22. A59G G80U  0.26
23. A59U U103C  0.31
24. A60G A78U  0.35
25. A60G U100A  0.52
26. A60G A98G  0.55
27. A59U U122C  0.69
28. A59G A96U  0.71
29. A59G U131C  0.71
30. A60U A63G  0.71
31. A59G A118U  0.74
32. A59G A118G  0.75
33. A59G U124C  0.78
34. A59G A94G  0.79
35. A60G U70C  0.8
36. A59G U97C  0.82
37. A59U U131A  0.84
38. A59G A117U  0.95
39. A59G U132A  0.98
40. A59G A89U  0.98
41. A60G U87A  1.02
42. A59C U122C  1.06
43. A60G A140U  1.06
44. A60G C128U  1.12
45. A60C A68G  1.17
46. A59C U100C  1.22
47. A59G A68G  1.22
48. A59G U120A  1.23
49. A60G A64G  1.24
50. A60G A66U  1.26
51. A59G A69G  1.26
52. A59G A62G  1.27
53. A59G U133A  1.28
54. A59C U127A  1.3
55. A60G G83A  1.3
56. A59G A62U  1.32
57. A60G A86G  1.36
58. A60G A94G  1.37
59. A59G A63G  1.4
60. A60G A135U  1.41
61. A60C A135U  1.44
62. A59U A91U  1.44
63. A59C A140U  1.46
64. A60G C121U  1.48
65. A59U A89G  1.48
66. A59U C61U  1.53
67. A59G U131A  1.54
68. A59G A135U  1.55
69. A60G A68C  1.57
70. A60U A66G  1.63
71. A60G U70G  1.65
72. A59G A96G  1.66
73. A60G A69U  1.67
74. A60G U97A  1.69
75. A60C U122A  1.74
76. A60C A96G  1.77
77. A60U A68G  1.79
78. A59G U133C  1.79
79. A60C A89C  1.8
80. A59U A134U  1.92
81. A60C G123A  1.98
82. A59C A68G  2.1
83. A59G C121A  2.81
